Measurements published in the nanobody polyreactivity screen of Harvey et al. (2022).

Assay: yeast display, Sf9 membrane polyspecificity reagent, FACS + sequencing; frameworks hold sequencing errors
In short: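 Galactose induction of a Saccharomyces cerevisiae BJ5465 synthetic nanobody display library ran 36–48 hours. The cells were then stained for 1 hour at 4 °C with 10% biotinylated, detergent-solubilized Sf9 membrane reagent, pulled down on streptavidin microbeads and FACS-sorted into low and high (top ~1%) gates on expression and reagent-binding fluorescence. Labels for polyreactivity follow the gate of origin.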

| Sequence | polyreactivity (PSR sort gate) |
| --- | --- |
| QVQLVESGGGLVQAGGSLRLRCAASGSIFSRNAMGWYRQAPGKERELVAAISGRGGSTYYADSVKGRFTISRDNAMNTVYLQMNRLKPEDTAVYYCAKAVIYRLSEAMDYWGQGSQVTVSS | high polyreactivity |
| QVQLVESGGGLVQAGGSLRLSCAASGSIFEVYAMGWYRQAPGKEREFVATISGSGGSTYYADSVKGRFTISRDNAKNTVYLQMNSLKPEDTAVYYCAASIAWYSSFVITYYYWGQGTQVTVSS | low polyreactivity |
| QVQLVESGGGLVQAGGSLRLSCAASGRIFTGYAMGWYRQAPGKERELVAAINSGGRTNYADSVKGRFTISRDNAKNTVYLQMNSLKPEDTAVYYCAARYTNYGGYYWGQGTQVTVSS | high polyreactivity |
| QVQLVESGGGLVQAGGSLRLSCAASGGTFHSNAMGWYRQAPGKERELVASINWSGGSTYYADSVKGRFTISRDNAKNTDYLQMNSLKPEDTAVYYCAARESYPGYGYDHWGQGTQVTVSS | low polyreactivity |
| QVQLVESGGGLVQAGGSLRLSCAASGRIFRYYAMGWYRQAPGKERELVATIDWSVGSTYYADSVKGRFTISRDNAKNTVYLQMNSLKPEDTAVYYCAKRGPQVWTFDYDSSGQGTQVTVSS | low polyreactivity |
| QVQLVESGGGLVQAGGSLRLSCDASGSTFGWYAMGWYRQAPGKERELVAAISKNGGRTYYADSVKGRFTISRDNAKNTVYLQMNSLKPVDTAVYYCNKVSKTVRDFDYWGQGTQVTVSS | high polyreactivity |
| QDQLVESGGGLVQAGGSLRLSCAASGRTFSYNTMGWYRQAPGKERELVAAITRSGGSTYYADSVKGRFTISRDNAKNTVYLQINSLKPEDTAVYYCNARSWYWGQGTQVTVSS | high polyreactivity |
| QVQLVESGGGLVQAGGSLRLSCAASGRTFSIYAMGWYRQAPGKERELVASITNSDGSTYYADSVKGRFTISRDNAKNTVYLQMNSLKPEDTAVYYWNVDSGKYWSLWTYVQYDDYWGQGTQVTVSS | low polyreactivity |
| QVQLVESGGGLVQAGGSLRLSCAASGSIFSHYAMGWYRQAPGKERELVAAISSSGNTYYADSVKGRFTISRDNAKNTVYLQMNSLKPEDTAVYYCNAVVYSPYRYEYWGQGTQVTVSS | low polyreactivity |
| QVQLVESGGGLVQAGGSLSLSCAASGSILPYNTMGWDRQAPGKERELVAAITSGVGSTYADSVKGRFTISRDNAKNTVYLQMNSLKPEDTAVYYCNASESAIPIGDLGDYWGQGTQVTVSS | low polyreactivity |
| QVQLEESGGGLVQAGGSLRLSCAASGRIFGGYAMGWYRQAPGKERELVAAISRNGGNTYYADSVKGRFTISRDNAKNTVYLQMNSLKPEDTAVYYCAATYDGTYDYWGQGTQVTVSS | high polyreactivity |
| QVQLVESGGGLDQARGSLRLSCAASGYTFYRNAMGWYRQAPGKVRELVAAIRDDGSTYYADSVKGRFTISRDNAKNTVYLHMNSLKPADTAVYYCNRDYPYIWHKGARYWHDNDYWGQGTQVTVSS | low polyreactivity |
| QVQLVESGGGLVQAGGSLRLSCAASGRTIRAYTMGWSRQAPGKERELVAAISTPGGSTYYADSVKGRFTISRDNAKNTVYLQMNSLKPEDTAVYYCAADYGGPITGYEYWGQGTQVTVSS | low polyreactivity |
| QVQLVESAGCLVQAAASLRLSCSASGRTFYNYAMGWYRQAPGKEWELVASIRKNGGSTYYADSVKGRFTISRDNAKNTVYFQMNRLKPEDTAVYYCAAGRTVVTGSYYWGQGTQVTVSS | high polyreactivity |
| QVQLVESGGGLVQAGGSLRLSCDASGRTFRYNAMGWYRQAPGKERELVAAISTRGGSTYYADSVKGRFTISRDNAKNTVYLQMNSLKPEDTAVYYCAADGRYAYGYNHWGQGTQVTVSS | low polyreactivity |
| QVQLVESGGGLVQAGGSLRLSCAASGSTFYSNAMGWYRQAPGKERELVATISQRGGRTYYADSVKGRFTISRDNAKNTVYLQMNSLKPEDTAVYYCAKAATSWYGRYGYDYWGQGTQVTVSS | low polyreactivity |
| QVQLVESGGGLVQAGGSLRLSCAASGSIFYYNTMGWYRQAPGKEREFVATITFSGSSTYYADSVKGRFTFSRDNAKNTVYLQMNSLKPEDTAVYYCAVTLEDYTYGYWGQGTQVTVSS | low polyreactivity |
| QVQHVESGGGLVQAGGSLRLSCAASGSTFWYAMGWYRQAPGKERELVAAITARGGRTYYADSVKGRFTISRDNAKNTVYLQMNSLKPEDTAVYYCARLSYAGGQWIIAKYDYWGQGTQVTVSS | high polyreactivity |
| QVQLLESGGGLVQAGGSLRLSFAASGYIFSVNAMGWYRQAPGQERELVATIRTDGTTNYADSVNGRFTISRDNAKNTVYLKMNSLKPEDTAVYYCATDSGWSTYDYWGQGTQVTVSS | high polyreactivity |
| QVQLVESGGGLVQAGGSLRLTCAASGSTFRWYAMGWYRPAPGKERELVAVITSGASTNYADSVKGRFTISRDNAKNTVYLQMNSLKPEDTAVYYCNRVPYFRWKYGYWGQGTQVTVSS | high polyreactivity |
| QVQLVESGGGLVQAGGSLRLSCAASGRILTTNAMGRYRQAPGKERELVATISTGSGRTYYADSVKGRFTISRDNAKNTVYLQMNSLKPEDTAVYYCAASRTLRKHRYEYWGQGTQVTVSS | high polyreactivity |

| Sequence | polyreactivity (PSR sort gate) |
| --- | --- |
| QVQLVESGGGLVQAGGSLRLSCAASGSIFLSNPMGWYRQAPGKERELVAAITSGGRTTYADSVKGRFTISRDNAKNTVYLQMNSLKPEDTAVYYCAARQRWYWRGYDYWGQGTQVTVSS | high polyreactivity |
| QVQLVESGRGLVQAGGSLRLSCAASGRIFFYYAMGWYREAPGKERELVATISYSGGGTYYADSVKGRFTISRDNAKNTVYLQMNSLKPEDTAVYYCNARWGTPYYIQDFDYWGQGTQVTVSS | low polyreactivity |
| QVQLPESGGGLLQAGGGLRLSCAASGSITSTGYMGWYRPAPGKEREPVAAIAAGTTTYYADSVKARFTISRDNAKNTVYLQMNCLRPEDTAVYYCAVFTDNRLAFLYWGQGTQVTVSS | low polyreactivity |
| QVQLVESGGGLVQAGGSLRLSCAASGRIFDDYAMGWYRQAPGKERELVAAISWSGGSTYYADSVKGRFTISRDNAKNTVYLQMNSLKPEDTAVYYCAAPYHSYKRIGYDYWGQGTQVTVSS | low polyreactivity |
| QVQLVESGGGLVQAGGSLRLSCAASGFNFVSYAMGWYRKAPGKERELVAVIDNSDGDTYYADSVKGRFTISRDNAKNTVYLQMNSLKPEDTAVYYCARDVSARGYLPFDYWGQGTQVTVSS | low polyreactivity |
| QVQHVESGGGLVQAGGSLRLSCAASGSIFRRYTMGWYRQAPGKERELVAAISRVGNTNYADSVKGRFTISRDNAKNTVYLQMNSLKPEDTAVYYCAARAIGYRYTPGLNYWGQGTQVTVSS | high polyreactivity |
| QVQLVESGGGLVQAGGSLRLSCAAYGSSFNHYSMGWYRQAPGKERELVAAISWNGGSTYYADSVKGRFTISRDNAKNTVYLQMNSLKPEDTAVYYCNALVTTTPRYDYWGQGTQVTVSS | high polyreactivity |
| KVQLVESGGGLVQAGGSLRLSCAASGSIIGGYAMGWYRQAPGKVRELVAAINRSGGRTYYADSVKGRFTFSRDNAKNTVYLQMNSLKPEDTAVYYCAADNFRGKYDYLGQGTQVTVSS | high polyreactivity |
| QVQLVESGGGLVQAGGSLRLSCAASGNTFGFNTMGWYRQAPGKERELVAAISKSGTRTFYADSVKGRFTISRDNAKNTVYLQMNSLKPEDTAVYYCAAVAKGGNWPAQGGGHDYWGQGTQVTVSS | high polyreactivity |
| QVQLVESGGGLVQAGGSLRLSCAASGSTFYGYGMGWYRQAPGKERELVAAITGYGDTTYYADSVKGRFTISRDYAKNTVDLQMNSLKPEDTAVYYCNARWHAEYDYWGQGTQVTVSS | low polyreactivity |
| QVQLVESGGGLVQAGGSLRLSCAASGSTFWPNAMGWYRQAPGKERELVAAISWSSSSGGRTYYADSVKGRFTISRDNAKNTVYLQMNSLKPEDTAVYYCNASYRDEDDYWGQGTQVTVSS | high polyreactivity |
| QVQLQESGGGLVQSGGSLRLSCAASGYISSWYPMGWYRHAPGKEREFVATIAPGATTYYADSVKGRFTISRDYAKNTVYLQMNSLKPEDTAVYYCAAGPENNDFYSYWGQGTQVTVSS | low polyreactivity |
| QVQLVESGGGLVQAGGSLRLSCAASGSIFNIYARGWYRQAPGKERELVATITGIADSTYYADSVKGRFTISRDNAKNTVYLQMNSLKPEDTAVYYCNADPSGVFFYSLEFDYWGQGTQVTVSS | low polyreactivity |
| QDQLVESGGGLVQAGGSLRLSCAASGFILGLNAMGWYRQAPGKEREFVADISWSGDSTYYADSVKGRFTISRDNAKNTVYLQMNSLKPEDTAFYYCAAVPYYNWGYYYWGQGTQVTVSS | low polyreactivity |
| QVQLVESGGGLVQAGGSLRLSCAASGIIFQYYVMGWYRQAPGKERELVATISTRGGSTYYADSVKGRFTISRDNAKNTVYLQMNSLKPEDTAVYYCAAPYGTYAYDYWGQGTQVTVSS | high polyreactivity |
| QVQLVDSGGGLVQAGGSLRLSSPASGIIFTRYTMGCYSQEPGKERELVAAITTSGGRTYYADSVKGRFTISRDNAKNTVYLPMNSLKPEDTAVYYCDVSGHARYDYWGQGTQVTVSS | high polyreactivity |
| QVQLVESGGGLVQAGGSLRLSCAASGSIFNSYAMGWYRQAPGKERELVAAISIRGTRTYYADSVKGRFTISRDNAKNTVYLQMNSLKPEDTAVYYCAADASYTEGMDYWGQGTQVTVSS | high polyreactivity |
| QVHLVESGGGLVQAGGSLRLSCAASGSTFDTYALGWYRQAPGKEWELVAAINTGGRTKYADSVKGRFTISRDNAKNTVYLQMNSLKPVDTGVYYCAARLSTTGVAYGYWGLGTQVTVSS | high polyreactivity |
| QVQLVESGGGLVQAGGSLRLSCAASGRIFSYYTMGWYRQAPGTERELVAAITWGGGSTSYADSVKGRFTISRDNAKNTVYLQMNSLKPEDTAVYYCAESPGANRMDYWGQGTQVTVSS | low polyreactivity |
| QVQLVESGGGLVQAGGSLRLSCAASGRIFEGYAMGWYRQAPGKEELVAAITSDASTYYADSVKGRFTISRDNAKNTVYLQMNSLKPEDTAVYYCAADTYDNDYYYWGQGTQVTVSS | high polyreactivity |
